Assay results reported in US20210292396A1 (INTERNATIONAL AIDS VACCINE INITIATIVE, published 2021).

Columns and labels:
Test in all cases: cell-based or functional assay
HIV Env of isolate 263-8 = HIV Env of isolate 263-8 (HIV)
[1] = molecular target: HIV Env of isolate T250-4 (HIV)
[2] = molecular target: HIV Env of isolate T278-50 (HIV)
[3] = molecular target: HIV Env of isolate T255-34 (HIV)
[4] = molecular target: HIV Env of isolate R2184.c04 (HIV)
[5] = molecular target: HIV Env of isolate R1166.c01 (HIV)
[6] = molecular target: HIV Env of isolate R3265.c06 (HIV)
HIV Env of isolate CNE8 = HIV Env of isolate CNE8 (HIV)
HIV Env of isolate CNE5 = HIV Env of isolate CNE5 (HIV)
[7] = molecular target: HIV Env of isolate BJOX028000.10.3 (HIV)
[8] = molecular target: HIV Env of isolate X2088_c9 (HIV)
[9] = molecular target: HIV Env of isolate X1632_S2_B10 (HIV)
[10] = molecular target: HIV Env of isolate A07412M1.vrc12 (HIV)
[11] = molecular target: HIV Env of isolate 231965.c01 (HIV)
[12] = molecular target: HIV Env of isolate 3817.v2.c59 (HIV)
[13] = molecular target: HIV Env of isolate 6480.v4.c25 (HIV)
[14] = molecular target: HIV Env of isolate 6811.v7.c18 (HIV)
[15] = molecular target: HIV Env of isolate 6540.v4.c1 (HIV)
[16] = molecular target: HIV Env of isolate 0815.v3.c3 (HIV)
[17] = molecular target: HIV Env of isolate 3103.v3.c10 (HIV)
[18] = molecular target: HIV Env of isolate SC422661.8 (HIV)
[19] = molecular target: HIV Env of isolate AC10.0.29 (HIV)
[20] = molecular target: HIV Env of isolate RHPA4259.7 (HIV)
[21] = molecular target: HIV Env of isolate TRJO4551.58 (HIV)
[22] = molecular target: HIV Env of isolate WITO4160.33 (HIV)
[23] = molecular target: HIV Env of isolate 1054_07_TC4_1499 (HIV)
[24] = molecular target: HIV Env of isolate 1056_10_TA11_1826 (HIV)
[25] = molecular target: HIV Env of isolate 6240_08_TA5_4622 (HIV)
[26] = molecular target: HIV Env of isolate 6244_13_B5_4576 (HIV)
[27] = molecular target: HIV Env of isolate Du422.1 (HIV)
[28] = molecular target: HIV Env of isolate ZM197M.PB7 (HIV)
[29] = molecular target: HIV Env of isolate ZM109F.PB4 (HIV)
[30] = molecular target: HIV Env of isolate ZM135M.PL10a (HIV)
[31] = molecular target: HIV Env of isolate CAP45.2.00.G3 (HIV)
[32] = molecular target: HIV Env of isolate CAP210.2.00.E8 (HIV)
[33] = molecular target: HIV Env of isolate Ce1172_H1 (HIV)
[34] = molecular target: HIV Env of isolate Ce2060_G9 (HIV)
[35] = molecular target: HIV Env of isolate Ce703010054_2A2 (HIV)
[36] = molecular target: HIV Env of isolate 246F_C1G (HIV)
HIV Env of isolate CNE21 = HIV Env of isolate CNE21 (HIV)
HIV Env of isolate CNE30 = HIV Env of isolate CNE30 (HIV)
HIV Env of isolate CNE58 = HIV Env of isolate CNE58 (HIV)
[37] = molecular target: HIV Env of isolate Q23.17 (HIV)
[38] = molecular target: HIV Env of isolate 0260.v5.c36 (HIV)
[39] = molecular target: HIV Env of isolate 191084_B7-19 (HIV)

B1: PGT-121 (antibody, V domains shown)
VH: QMQLQESGPGLVKPSETLSLTCSVSGASISDSYWSWIRRSPGKGLEWIGYVHKSGDTNYSPSLKSRVNLSLDTSKNQVSLSLVAATAADSGKYYCARTLHGRRIYGIVAFNEWFTYFYMDVWGNGTQVTVSS
VL: SDISVAPGETARISCGEKSLGSRAVQWYQHRAGQAPSLIIYNNQDRPSGIPERFSGSPDSPFGTTATLTITSVEAGDEADYYCHIWDSRVPTKWVFGGGTTLTVLG
- neutralization IC50 (HIV Env of isolate 263-8): 0.648 µg/mL
- neutralization IC50 [1]: 0.001 µg/mL
- neutralization IC50 [2]: > 50 µg/mL
- neutralization IC50 [3]: 18.7 µg/mL
- neutralization IC50 [4]: > 50 µg/mL
- neutralization IC50 [5]: > 50 µg/mL
- neutralization IC50 [6]: > 50 µg/mL
- neutralization IC50 (HIV Env of isolate CNE8): > 50 µg/mL
- neutralization IC50 (HIV Env of isolate CNE5): > 50 µg/mL
- neutralization IC50 [7]: > 50 µg/mL
- neutralization IC50 [8]: 0.003 µg/mL
- neutralization IC50 [9]: > 50 µg/mL
- neutralization IC50 [10]: 0.009 µg/mL
- neutralization IC50 [11]: > 50 µg/mL
- neutralization IC50 [12]: 18.9 µg/mL
- neutralization IC50 [13]: 0.001 µg/mL
- neutralization IC50 [14]: 0.001 µg/mL
- neutralization IC50 [15]: > 50 µg/mL
- neutralization IC50 [16]: 0.025 µg/mL
- neutralization IC50 [17]: 0.009 µg/mL
- neutralization IC50 [18]: 0.038 µg/mL
- neutralization IC50 [19]: 0.024 µg/mL
- neutralization IC50 [20]: 0.015 µg/mL
- neutralization IC50 [21]: 1.31 µg/mL
- neutralization IC50 [22]: 0.334 µg/mL
- neutralization IC50 [23]: 0.064 µg/mL
- neutralization IC50 [24]: 0.004 µg/mL
- neutralization IC50 [25]: 0.033 µg/mL
- neutralization IC50 [26]: 0.061 µg/mL
- neutralization IC50 [27]: 0.039 µg/mL
- neutralization IC50 [28]: > 50 µg/mL
- neutralization IC50 [29]: 8.64 µg/mL
- neutralization IC50 [30]: 0.716 µg/mL
- neutralization IC50 [31]: 1.63 µg/mL
- neutralization IC50 [32]: 26.3 µg/mL
- neutralization IC50 [33]: 0.011 µg/mL
- neutralization IC50 [34]: > 50 µg/mL
- neutralization IC50 [35]: > 50 µg/mL
- neutralization IC50 [36]: 0.041 µg/mL
- neutralization IC50 (HIV Env of isolate CNE21): 0.007 µg/mL
- neutralization IC50 (HIV Env of isolate CNE30): > 50 µg/mL
- neutralization IC50 (HIV Env of isolate CNE58): > 50 µg/mL
- neutralization IC50 [37]: 0.001 µg/mL
- neutralization IC50 [38]: 0.053 µg/mL
- neutralization IC50 [39]: 0.011 µg/mL

B2: ePGT121.15.H1.L1 (antibody, V domains shown)
VH: QMQLQESGPGLVKPGETLSLTCSVSGASISSSYWSWLRETPGKGLEWIGYTHHSGDTNYAPSLKSRVHLGLHPSKNQVSLSLTSVTAADTAVYYCARTLHGRRIYGVVAFNEWFTYFYWEVWGNGTQVTVSS
VL: SDISVAPGETVRISCGGESIGSRAVQWYQHRAGQAPKLIIYNNQDRPPGIPERFSGSPDIDFGTTATLTITNVEAGDEATYYCHIWDSRRPTNWVFGGGTTLTVL
- neutralization IC50 (HIV Env of isolate 263-8): 0.0044 µg/mL
- neutralization IC50 [1]: 0.0002 µg/mL
- neutralization IC50 [2]: 0.0124 µg/mL
- neutralization IC50 [3]: 0.0221 µg/mL
- neutralization IC50 [4]: > 50 µg/mL
- neutralization IC50 [5]: > 50 µg/mL
- neutralization IC50 [6]: > 50 µg/mL
- neutralization IC50 (HIV Env of isolate CNE8): > 50 µg/mL
- neutralization IC50 (HIV Env of isolate CNE5): 15.8 µg/mL
- neutralization IC50 [7]: 0.0021 µg/mL
- neutralization IC50 [8]: 0.0007 µg/mL
- neutralization IC50 [9]: > 50 µg/mL
- neutralization IC50 [10]: 0.0022 µg/mL
- neutralization IC50 [11]: > 50 µg/mL
- neutralization IC50 [12]: 0.724 µg/mL
- neutralization IC50 [13]: 0.0012 µg/mL
- neutralization IC50 [14]: 0.0012 µg/mL
- neutralization IC50 [15]: > 50 µg/mL
- neutralization IC50 [16]: 0.0017 µg/mL
- neutralization IC50 [17]: 0.0017 µg/mL
- neutralization IC50 [18]: 0.0005 µg/mL
- neutralization IC50 [19]: 0.0002 µg/mL
- neutralization IC50 [20]: 0.0003 µg/mL
- neutralization IC50 [21]: 0.0005 µg/mL
- neutralization IC50 [22]: 0.0011 µg/mL
- neutralization IC50 [23]: 0.0001 µg/mL
- neutralization IC50 [24]: 0.0001 µg/mL
- neutralization IC50 [25]: 0.0022 µg/mL
- neutralization IC50 [26]: 0.0037 µg/mL
- neutralization IC50 [27]: 0.0007 µg/mL
- neutralization IC50 [28]: > 50 µg/mL
- neutralization IC50 [29]: 10.7 µg/mL
- neutralization IC50 [30]: 0.132 µg/mL
- neutralization IC50 [31]: 5.02 µg/mL
- neutralization IC50 [32]: 0.0052 µg/mL
- neutralization IC50 [33]: 0.0003 µg/mL
- neutralization IC50 [34]: > 50 µg/mL
- neutralization IC50 [35]: > 50 µg/mL
- neutralization IC50 [36]: 0.0013 µg/mL
- neutralization IC50 (HIV Env of isolate CNE21): 0.0001 µg/mL
- neutralization IC50 (HIV Env of isolate CNE30): 0.0024 µg/mL
- neutralization IC50 (HIV Env of isolate CNE58): 0.0025 µg/mL
- neutralization IC50 [37]: 0.0004 µg/mL
- neutralization IC50 [38]: 0.004 µg/mL
- neutralization IC50 [39]: 0.0009 µg/mL
